Test results taken from US20130195866.

Target: T1, NFATc4 (nuclear factor of activated T cells), endogenous in mouse cortical neurons (UniProt Q8K120)
T1 sequence: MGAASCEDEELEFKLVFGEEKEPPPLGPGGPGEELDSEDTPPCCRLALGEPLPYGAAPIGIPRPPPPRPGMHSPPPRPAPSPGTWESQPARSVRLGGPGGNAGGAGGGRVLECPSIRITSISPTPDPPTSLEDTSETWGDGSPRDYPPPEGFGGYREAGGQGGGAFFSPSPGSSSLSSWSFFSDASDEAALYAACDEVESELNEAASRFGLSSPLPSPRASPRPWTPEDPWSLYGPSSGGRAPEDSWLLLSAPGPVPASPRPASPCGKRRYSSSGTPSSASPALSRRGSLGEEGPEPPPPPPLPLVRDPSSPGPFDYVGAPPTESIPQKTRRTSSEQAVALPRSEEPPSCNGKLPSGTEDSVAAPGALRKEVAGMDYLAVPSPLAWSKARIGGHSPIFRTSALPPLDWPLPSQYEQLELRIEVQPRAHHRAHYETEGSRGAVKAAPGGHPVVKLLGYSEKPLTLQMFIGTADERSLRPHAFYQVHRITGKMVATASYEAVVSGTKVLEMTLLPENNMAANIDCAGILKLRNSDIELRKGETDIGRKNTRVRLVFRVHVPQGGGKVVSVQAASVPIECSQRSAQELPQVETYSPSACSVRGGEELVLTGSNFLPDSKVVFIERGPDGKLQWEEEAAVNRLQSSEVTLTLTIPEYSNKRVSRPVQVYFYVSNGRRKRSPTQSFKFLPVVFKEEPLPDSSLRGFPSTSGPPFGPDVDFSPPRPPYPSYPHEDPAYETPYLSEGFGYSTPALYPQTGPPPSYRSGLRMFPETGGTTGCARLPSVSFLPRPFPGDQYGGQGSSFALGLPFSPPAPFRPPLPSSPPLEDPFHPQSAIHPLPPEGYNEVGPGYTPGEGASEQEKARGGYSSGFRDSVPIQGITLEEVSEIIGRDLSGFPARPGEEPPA

Substance: HA-tagged constitutively active calcineurin, CaNCA (mouse CaN amino acid residues 1-399, 45 kDa form)
- NFATc4 nuclear distribution in neurons of injected mouse brain: CaNCA-expressing neurons showed high levels of NFATc4 nuclear distribution (data not shown)
